Target: T1, MBP-tagged WSTF C-motif (208-345) (human, UniProt Q9UIG0 208-345)
T1 sequence (looked up): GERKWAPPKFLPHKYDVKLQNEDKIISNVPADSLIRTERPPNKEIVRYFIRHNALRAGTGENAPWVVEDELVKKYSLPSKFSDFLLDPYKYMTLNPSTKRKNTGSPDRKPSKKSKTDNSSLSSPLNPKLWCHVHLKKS
Assay: pull-down + SEC

B1: GST-tagged WSTF N-motif (1-205) (domain or fragment, human, UniProt Q9UIG0 1-205, looked up)
chain: MAPLLGRKPFPLVKPLPGEEPLFTIPHTQEAFRTREEYEARLERYSERIWTCKSTGSSQLTHKEAWEEEQEVAELLKEEFPAWYEKLVLEMVHHNTASLEKLVDTAWLEIMTKYAVGEECDFEVGKEKMLKVKIVKIHPLEKVDEEATEKKSDGACDSPSSDKENSSQIAQDHQKKETVVKEDEGRRESINDRARRSPRKLPTSL
  stoichiometry N: 1
